Assay: yeast display, Sf9 membrane polyspecificity reagent, FACS + sequencing; frameworks hold sequencing errors
Summary of the method: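 Nanobodies came from a synthetic yeast display library in Saccharomyces cerevisiae BJ5465, induced with galactose for 36–48 hours and stained for 1 hour at 4 °C with 10% biotinylated, detergent-solubilized Sf9 membrane reagent. Cells were enriched on streptavidin microbeads and then FACS-sorted, with low and high (top ~1%) gates set on anti-HA fluorescence for expression and streptavidin fluorescence for reagent binding. Each polyreactivity label reflects the gate a clone came from. Genes were amplified by colony PCR, sequenced by MiSeq 2 × 250 and filtered by CDR length.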

Sequence	polyreactivity (PSR sort gate)
QVKLVESGGGLVQAGGSLRLSCAASGFIFSKNAMGWYRQAPGKERELVAAISGRGGTTYYADSVKGRFTISRDNAKNTVYLQMNSLIPEDTAVYYCATDNSSHPYDYWGQGTQVTVSS	high polyreactivity
QVQLVESGGGLVQAGGSLRLSCAASGSTFDVYTMGWYRQAPGKERELVATISGDDGSTYYADSEKGRFTISRDNAKNTVSLQMNSLKPEDTAVYYCAADYGGFPNYYSTGDYWGQGTQVTVSS	low polyreactivity
QVQLVESGGGLVQAGGSLRLSCAASGFTFSLNTMGWYRQAPGKERELVAAINSGDSTYADSVKGRFTISRDNAKNTVYLQMNSLKPEDTAVYYCNADPDWWYPYNYWGLGTQVTVSS	low polyreactivity
QVQLVESGGGLVQAGGSLRLSCAASGRTFGSNAMGWYRQAPGKERQLVAAITRRGGSTYYADSVKGRFTISRDNAKNTVYLQMNSLKPEDTAVYDCATDPVSTRGSDYWGQGTQVTVSS	low polyreactivity
QVQLVESGGGLVQAGGSLRLSCAASGLTLAPNAMGWYRQAPGKERELVAAITRSGGDTYYADSVKGRFTISRDNAKNTVYLQMNSLKPEDTAVYYCAADYWFRYGTYEYWGQGTQVTVSS	high polyreactivity
QDQLVESGGGLVQAGGSLRLSCAASGSIFLKYVMGVYRPEPGKERELVASISSGGGTYYADSVKGRFTISRDNAKNTVYLQMNILKPEDTAVYYCARRPYRGSYAFDYWGQGTQVTVSS	low polyreactivity
QVQLVESGGGLVQAGGSLRLSCAASGSIFPHNTMGWYRQAPGNERELVAAISRSGGSTYYADSVKGRFTISRDNAKNTVYLQMNSLKPEDTAVYYCARDSYDVGHQVVSDERLYDYWGQGTQVTVSS	low polyreactivity
QVQLVESGGGLVQAGGSLRLSCAASGSIFGINTMGWYRHAPGKEREFVASIRFNDGDTYYADSVKGRFTISRDTAKNTVYLKMNSLKPEDTAVYYCNVQTYVELRLDYWGQGTQVTVSS	low polyreactivity
QVQLVESGGGLVQAGGRLRLSCAASGRTFGINAMGWYRQEPGKERELVASISSGGRTNYADSVKGRFTISRHNAKNTVYLQMNSLKPEDTAVYYCARSRLGRAYGRYDYWGQGTQVTVSS	low polyreactivity
QVQLVESGGGLVQAGGSLRLSCAASGRILRDYDMGWYRQATGKERELVAAINWSDGSTYYADSVKGRFTISRDNAKNTVYLQMNSLKPEDTAVYYCAASRWRPLERGTTWLNDYWGQGTQVTVSS	low polyreactivity
QVQLVESGGGLVQAGGSLRLSCAASGITFLPYTMGWYRQAPGKERELVATISWNGGSTYYADSVKGRFTISRDNAKNTVYLQMNSLKPEDTAVYYCATGKWGYFRYNYWGQGTQVTVSS	high polyreactivity
QVQLVESGGGLVQAAGSLRLSCAASGYTLAGNAMGWYRQSPGIERELVAAIDWNGGSTTYADSVKGRFTISRDNAKNTVYLQMNSLKPEDSAVYYCNVDLGVNGDYWGQGWQVTVSS	low polyreactivity
QVQLVESGGGLVQAGASHRLSCAASGSTFRYNSMGSYRQAPGKERELVAAISRGGSTNYADSVNGRFTISRDNANNTVYLQMISLKPEATAVYYCAASGTRQEYDYWGQGTQVTVSS	high polyreactivity
QVQLVESGGGLVQAGGSLRLSCAASGSIFEYNAMGWYRQAPGKERELVAAITRGGNTYYADSVKGRFTISRDNAKNTVYLQMNSLKPEDTAVYYCAAVQWYGYPYYSWGQGTQVIVSS	low polyreactivity
QVQLVESGGGLVQAGGSLRLSCAASGRTFISNAMGWYRQAPGKERELVADINGGGSTYYADSVKGRFTISRDNAKNTVYLQINSLKPEDTAVYYCAADVWTLDPDEYDYWGQGTQVTVSS	low polyreactivity
QVQLVESGGGLVQAGGSLRLSSAASGSILPLYAMGWYRQAPGKERELVADISWSGGDTYYADSVKGRFTISRDKAKNTVYLQMNSLKPEDTAVYYCNSRLDYSTYESSPVTRKRVYWGQGTQVTVSS	low polyreactivity
QVQLVESGGGLVQAGGSLRLSCAASGRIFCTNAMGWYRHEPGKERELVADITSGGSTNYADSVKGRFTISRDNAKNTVYLQMNSLKPEDTAVYSCAADVIGDLRWYRDEYWGQGTQVTVSS	low polyreactivity
QVQLVESGGGLVQAGGSLRLSCAASGRTFRYYAMGWYRQAPGKERELVAAITSVGGTYYADSVKGRFTISRDNAKNTVYLQMNSLKPEDTAVYYCAVTSYKYRKYDYWGQGTQVTVSS	high polyreactivity
QVQLVESGGGLVQAGGSLRLSCAASGRTFIRYAMGWYRQAPGKERELVAAISSRGGRTHYADSVKGRFTISRDNAKNTVYLQMNSLKPEDTAVYYCAADLTYVTVPGASYDYWGQGTQVTVSS	low polyreactivity
QVKLVESGGGLVQSGGSLRLSCAASGSILDVNAMGWYRQAPGKERELVAAISDSGGSTYYADSVKGRFTISRDNAKNTVYLQMNSLKPEDTAVYYCATAYYYHGGYYYPYDDYWGQGTQVTVSS	low polyreactivity
QVQLVESGGGLVQAGGSIRLSCAASGGTFGYYVMGWYRQAPRKERELVAAITSGGSTKYADSVKGRFTISRDNAKNTVYLQMNSLKPEDTAVYYCAADVTRREPYQSYDYWGQGTQVTVSS	low polyreactivity
QVQLVESGGGLVQAGGSLRLSCAASGRTLSNYAMGWSRQAPGKETELVAAISSSGSTNYADSVKGRFTISRDNAKNTVYLQMNSLKPEDTAVYYCAAESWFLRWYRYDYWGQGTQVSVSS	low polyreactivity

Sequence	polyreactivity (PSR sort gate)
QVQLVESGGGLVQAGGSLRLSCAASGFTFGVNAMGWYRQAPGKERELVAVITSGGNTYYADSVKGRFTISRDNAKNTVYLQMNSLKPEDTAVYYCAADLSDTSYATRYQGDYWGQGTQVTVSS	low polyreactivity
QVQLVESGGGLVQAGGSLRLSCAASGSTIVRYAMGWNRQAPGKERELVAAISSRGGCTYYADSVKGRFTISRDNAKNTVYLQMNSLKPEDTAVYYCNADYSVGSWGQGTQVTVSS	high polyreactivity
QVQLVESGGGLVQAGGSLRLSCAAYGSTLAGYAMGWYRQAPGKERELVAAIDWTGGSTTYADSVKGRFTISRDNAKNTVYLQMNSLKPEDTAVYYCNVDLGVNGDYWGQGSQVTVSS	low polyreactivity
QVQLVESGGGLVQAGGSLRLTCAASGFTFRSYAMGWYRQAPGKEREWVAVISSSGGSTYYADSVKARFTISRDNAKNTVYLQMNSLKPEDTAVYYCNRRPATRAYLYDYWGQGTQVTGSS	high polyreactivity
QVQLVESGGGLVQAGGSLRLSCAASGSTFYYNTMGWYRQAPGKERELVAAISWRGGSTYYADSVKGRFTISRDNAKNTVYLLMNSLKPVDTAVYYCAAGWYPRSVRPFESFVGLDYWGQGTQVTVSS	high polyreactivity
QVQLVESGGGLVQAGGSLRLSCAASGSIFYDYTMGWSRQAPGKERELVAAINSGGSTNYADSVKGRFTISRDNAKNTVYLQMNSLKPEDTAVYYCAAEPQFAFLDSRLWGSDYWGQGTQVTVSS	low polyreactivity
QDQLVESRGGLVQAGGSLRLSCAASGSIFTVNAMGWYRQAPRKERELVASITWRSGSTYYPDSVKGRFTISRDNAKNSVYLQMNRLKPEDTAFYYCNADSDYPYYPGNFDYWGQGTQVTVSS	low polyreactivity
QVQLVESGGGFVQAGGSLRLSCAASGRTFPEYDMGRYRQAPGKERELVAAISTSGGSTYYADSVKGRFTISRDIAKNTVYLQMNSLKPEDTGVYYCAAQVTSIWGFTYAYRYDYWGQGTHVTVSS	low polyreactivity
QVQLVESGGGILQAGGSLRLSCAASGSTFSGYAMGWYRQATGKERELVAAISSSGGSTYYADSVKGRFTISRDNAKNTVYLKMNSQKPEDTAVYYCAKRRYGKHYTGLTSYYYWGHGTQVTVSS	high polyreactivity
QLQLVESGGGLVQAGGSLRLSCAASGLTIWRYAKGCYRQAPGKEREFVATISQNGGRTYYADSVKGRFTISRDNAKNSVYLQMNSLKPEDTAVYYCAADDWRWGYDYWVQGTQVTVSS	high polyreactivity
QVQLVESGGGLVQAGGILRLSCAASGRTFNSNAMGWYRQAPGKERELVAAITGGGGRTYYADSVKGRFTISRDNAKNTVYLQMNSVKPEDTAVYYCYAARWYRGYDYWGQVTQVTVSS	high polyreactivity
QVQLVESGGGLVQAGGSLRLSCAASGSTFPPYVIGWYRPAPGKERELVAAITWSSGSTYYADSVKGRFTISRDNAKNTVYLQMNSLKPEDTAVYYCAARAYRWGQGTQVTVSS	low polyreactivity
QVQLVESGGGLVQAGGSLRLSCAASGSTFRYYAMGWYRQAPGKERELVAAISWSGGSTYYADSVKGRFTISRDNAKNTVYLQMNSLKPEDTEVYYCNKAWFPYYYYRFDYWGQGTQVTVSS	high polyreactivity
QVQLVESGGGLVQAGGSLRLSCAASGSIFGLYAMGWYRQAPGKEREFVASITYSGGSTYYADSVKGRFTISRDNAKNTVYLQMNSLKPEDTAVYYCAAESYWGYDYWGQGTQVTVSS	high polyreactivity
QVQLVESGGGLVQAGGSLRLSCAASGFTFGYNAMGWYRQTPGKERELVAVITQSGGRTYYADSVKGRFTISRDNAKNTVYLQMNSLKPEDTAVYYCAARYRLPPYYYWGQGTQVTVSS	high polyreactivity
QVQLVESGGGLVQAGGSLRLSCAASGSIFYKYTMGWYRPAPGKERELVAAISRSGGRTYYADSVKGRFTISRDNAKNTVYLQMNSLKPEDTAVYYCARDLKIVEYDYWGQGTQVTVSS	low polyreactivity
QVQLVESGGGLVQAGGSLRLSCAASGFTFYLNAMGWYRQAPGKERELVAAISYSDGSPYYADSVKGRFTISRDNAKNTVYLQRNSLKPEDTAVYYCAADTTDPGGAYQLMDYWRQGTQVTVSS	low polyreactivity
QVQLVESGGGLVQAGGSLRLSCAASGRTFWWNAMGWYRQAPGKERELVAVISYSGGSTYYADSVKGRFTISRDNAKNTVYLQMNSLKPEDTAVYYCAAEAYTYWDTIYDYLGQGTQVTVSS	high polyreactivity
QVQLVESGGRLVQAGGSLRLSCAASGRTFTRNAMGWYRQAPGKERELVAAISWSGGSTYYADSVKGRFTISRDNAKNTVYLQMNSLKPEDTAVYYCAARIWYYNYWGQGTQVTVSS	high polyreactivity
QVQLVESGGGLVQAGGSLRLSCAASGITFPRYTMGWYRPAPGKERELVAAISSGGSTYYADSVKGRFTISRDNAKNTVYLQMNSLKPEDTAVYYCNAVVPYWYYIYDYWGQGTQVTVSS	high polyreactivity
QVQLVESGGGLVQAGGSLRLSCAASGFIFTRNAMGLYRQAPGTERELVAVISYGGGSTYYADSVKGRFTISRDNAKNTVYLQMNSLKPEDTAVYYCAADQNWRYYYHYTYYYWGQGTQVTVSS	high polyreactivity
